This note sets out measurements from publication PMC2810376 (The EMBO Journal, 2010).

The target of assay [1] is Rpb2, second largest subunit of RNA polymerase II (S. cerevisiae, UniProt P08518 1-1224). The assay can be described thus: cross-linking.
The target in assay [2] is Rpb1, subunit of RNA polymerase II (S. cerevisiae, UniProt P04050 1-1733). The assay can be described thus: cross-linking.
Sequence of Rpb1, subunit of RNA polymerase II (P04050 whole entry): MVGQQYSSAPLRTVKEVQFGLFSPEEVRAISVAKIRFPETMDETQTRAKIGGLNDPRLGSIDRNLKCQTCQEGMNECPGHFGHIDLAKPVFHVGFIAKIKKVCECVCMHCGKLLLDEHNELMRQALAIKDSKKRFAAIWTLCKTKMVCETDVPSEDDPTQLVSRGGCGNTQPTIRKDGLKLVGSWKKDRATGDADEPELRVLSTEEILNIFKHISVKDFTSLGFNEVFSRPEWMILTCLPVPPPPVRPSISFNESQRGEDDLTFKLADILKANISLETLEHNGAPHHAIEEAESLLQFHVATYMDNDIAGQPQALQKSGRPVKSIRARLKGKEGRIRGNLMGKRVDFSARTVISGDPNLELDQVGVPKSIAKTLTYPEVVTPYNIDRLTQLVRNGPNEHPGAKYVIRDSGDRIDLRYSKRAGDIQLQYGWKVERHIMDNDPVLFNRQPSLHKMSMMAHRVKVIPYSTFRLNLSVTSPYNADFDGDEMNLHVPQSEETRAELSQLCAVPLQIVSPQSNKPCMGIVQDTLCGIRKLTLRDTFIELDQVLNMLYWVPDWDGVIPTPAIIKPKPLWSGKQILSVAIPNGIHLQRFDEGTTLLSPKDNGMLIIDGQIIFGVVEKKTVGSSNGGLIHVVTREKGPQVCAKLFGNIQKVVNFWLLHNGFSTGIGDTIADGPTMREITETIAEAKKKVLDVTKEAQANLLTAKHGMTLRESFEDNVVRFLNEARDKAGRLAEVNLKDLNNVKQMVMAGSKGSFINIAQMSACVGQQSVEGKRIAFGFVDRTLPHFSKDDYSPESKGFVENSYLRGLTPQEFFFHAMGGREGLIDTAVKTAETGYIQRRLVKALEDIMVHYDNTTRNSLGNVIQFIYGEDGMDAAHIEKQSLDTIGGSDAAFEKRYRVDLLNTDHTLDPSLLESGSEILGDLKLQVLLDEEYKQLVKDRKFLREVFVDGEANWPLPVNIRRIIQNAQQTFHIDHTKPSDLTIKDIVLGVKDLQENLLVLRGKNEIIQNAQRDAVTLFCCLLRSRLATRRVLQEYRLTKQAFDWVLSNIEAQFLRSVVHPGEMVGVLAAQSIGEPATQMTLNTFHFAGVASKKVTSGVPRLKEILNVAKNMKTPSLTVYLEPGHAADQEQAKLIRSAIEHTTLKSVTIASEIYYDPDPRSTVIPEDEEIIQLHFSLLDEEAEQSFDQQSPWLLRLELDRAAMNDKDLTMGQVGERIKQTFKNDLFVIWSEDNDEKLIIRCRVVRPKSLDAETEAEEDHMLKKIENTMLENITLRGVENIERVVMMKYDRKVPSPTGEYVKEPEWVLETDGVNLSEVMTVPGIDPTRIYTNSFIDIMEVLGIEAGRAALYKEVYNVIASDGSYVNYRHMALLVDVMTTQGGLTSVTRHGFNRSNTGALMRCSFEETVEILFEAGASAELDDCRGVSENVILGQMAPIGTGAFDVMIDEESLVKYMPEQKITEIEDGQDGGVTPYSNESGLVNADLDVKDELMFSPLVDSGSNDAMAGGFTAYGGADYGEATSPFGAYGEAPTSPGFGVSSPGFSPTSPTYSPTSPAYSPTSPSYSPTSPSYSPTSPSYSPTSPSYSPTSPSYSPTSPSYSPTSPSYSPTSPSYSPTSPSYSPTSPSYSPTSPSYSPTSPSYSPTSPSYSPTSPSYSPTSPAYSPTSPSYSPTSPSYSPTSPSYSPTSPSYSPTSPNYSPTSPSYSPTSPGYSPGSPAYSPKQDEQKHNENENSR

Sequence of Rpb2, second largest subunit of RNA polymerase II (P08518 whole entry): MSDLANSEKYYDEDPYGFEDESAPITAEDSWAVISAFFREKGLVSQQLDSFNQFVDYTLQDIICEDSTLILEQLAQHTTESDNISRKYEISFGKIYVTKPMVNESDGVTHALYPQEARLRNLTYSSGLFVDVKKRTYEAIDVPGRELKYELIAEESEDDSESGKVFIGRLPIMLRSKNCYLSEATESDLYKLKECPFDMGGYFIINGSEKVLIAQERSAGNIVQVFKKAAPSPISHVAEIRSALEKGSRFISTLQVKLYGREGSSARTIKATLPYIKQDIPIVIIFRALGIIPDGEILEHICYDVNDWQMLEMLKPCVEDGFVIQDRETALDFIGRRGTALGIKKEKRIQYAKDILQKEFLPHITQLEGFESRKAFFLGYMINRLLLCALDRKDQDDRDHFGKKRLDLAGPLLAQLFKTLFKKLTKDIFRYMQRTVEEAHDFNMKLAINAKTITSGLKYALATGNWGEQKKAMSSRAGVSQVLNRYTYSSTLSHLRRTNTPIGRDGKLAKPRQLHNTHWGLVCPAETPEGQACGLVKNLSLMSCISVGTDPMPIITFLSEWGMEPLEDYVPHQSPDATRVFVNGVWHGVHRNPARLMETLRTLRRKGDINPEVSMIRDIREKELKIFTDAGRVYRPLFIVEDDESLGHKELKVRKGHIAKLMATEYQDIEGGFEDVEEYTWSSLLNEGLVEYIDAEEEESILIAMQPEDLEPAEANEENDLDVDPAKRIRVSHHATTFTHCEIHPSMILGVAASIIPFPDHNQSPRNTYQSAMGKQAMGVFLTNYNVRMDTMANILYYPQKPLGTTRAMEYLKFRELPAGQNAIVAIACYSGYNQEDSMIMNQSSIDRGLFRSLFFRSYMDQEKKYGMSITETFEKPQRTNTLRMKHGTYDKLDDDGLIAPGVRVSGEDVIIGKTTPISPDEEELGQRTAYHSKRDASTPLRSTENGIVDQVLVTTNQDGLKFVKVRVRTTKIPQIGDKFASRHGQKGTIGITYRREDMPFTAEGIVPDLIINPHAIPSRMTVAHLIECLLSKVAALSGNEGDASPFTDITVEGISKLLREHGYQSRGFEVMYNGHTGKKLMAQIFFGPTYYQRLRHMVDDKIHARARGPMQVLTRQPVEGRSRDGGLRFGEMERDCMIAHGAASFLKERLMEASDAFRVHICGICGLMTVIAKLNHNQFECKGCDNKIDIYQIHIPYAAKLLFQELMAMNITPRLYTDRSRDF

B1: Tfg1, subunit of yeast TFIIF (natural protein, S. cerevisiae, UniProt P41895 1-735, looked up)
chain: MSRRNPPGSRNGGGPTNASPFIKRDRMRRNFLRMRMGQNGSNSSSPGVPNGDNSRGSLVKKDDPEYAEEREKMLLQIGVEADAGRSNVKVKDEDPNEYNEFPLRAIPKEDLENMRTHLLKFQSKKKINPVTDFHLPVRLHRKDTRNLQFQLTRAEIVQRQKEISEYKKKAEQERSTPNSGGMNKSGTVSLNNTVKDGSQTPTVDSVTKDNTANGVNSSIPTVTGSSVPPASPTTVSAVESNGLSNGSTSAANGLDGNASTANLANGRPLVTKLEDAGPAEDPTKVGMVKYDGKEVTNEPEFEEGTMDPLADVAPDGGGRAKRGNLRRKTRQLKVLDENAKKLRFEEFYPWVMEDFDGYNTWVGSYEAGNSDSYVLLSVEDDGSFTMIPADKVYKFTARNKYATLTIDEAEKRMDKKSGEVPRWLMKHLDNIGTTTTRYDRTRRKLKAVADQQAMDEDDRDDNSEVELDYDEEFADDEEAPIIDGNEQENKESEQRIKKEMLQANAMGLRDEEAPSENEEDELFGEKKIDEDGERIKKALQKTELAALYSSDENEINPYLSESDIENKENESPVKKEEDSDTLSKSKRSSPKKQQKKATNAHVHKEPTLRVKSIKNCVIILKGDKKILKSFPEGEWNPQTTKAVDSSNNASNTVPSPIKQEEGLNSTVAEREETPAPTITEKDIIEAIGDGKVNIKEFGKFIRRKYPGAENKKLMFAIVKKLCRKVGNDHMELKKE
Regarding B1, the binding result in assay [1] and in assay [2] was “binds” each time.

B2: Tfg2, subunit of yeast TFIIF, with a C-terminal TAP tag (natural protein, S. cerevisiae, UniProt P41896 1-400, looked up)
chain: MSSGSAGAPALSNNSTNSVAKEKSGNISGDEYLSQEEEVFDGNDIENNETKVYEESLDLDLERSNRQVWLVRLPMFLAEKWRDRNNLHGQELGKIRINKDGSKITLLLNENDNDSIPHEYDLELTKKVVENEYVFTEQNLKKYQQRKKELEADPEKQRQAYLKKQEREEELKKKQQQQKRRNNRKKFNHRVMTDRDGRDRYIPYVKTIPKKTAIVGTVCHECQVMPSMNDPNYHKIVEQRRNIVKLNNKERITTLDETVGVTMSHTGMSMRSDNSNFLKVGREKAKSNIKSIRMPKKEILDYLFKLFDEYDYWSLKGLKERTRQPEAHLKECLDKVATLVKKGPYAFKYTLRPEYKKLKEEERKATLGELADEQTGSAGDNAQGDAEADLEDEIEMEDVV
In the case of B2, in assay [1], the binding result is “binds”.
